The results in this text go back to patent US20070161060A1 (published 2007).

Data set [1] deals with AP2 adaptor protein complex (endogenous). As to the kind of experiment: cell-based or functional assay.
Data set [2] concerns the target endogenous PIPKIγ of HEK293 cells (UniProt O60331). Kind of data set: co-IP from HEK293 cells expressing the Myc-tagged tail.
Data set [3] has as its target AP2 adaptor protein complex (endogenous).
The next data set has as its target T1, β-catenin (UniProt P35222 2-781).
T1 sequence (looked up): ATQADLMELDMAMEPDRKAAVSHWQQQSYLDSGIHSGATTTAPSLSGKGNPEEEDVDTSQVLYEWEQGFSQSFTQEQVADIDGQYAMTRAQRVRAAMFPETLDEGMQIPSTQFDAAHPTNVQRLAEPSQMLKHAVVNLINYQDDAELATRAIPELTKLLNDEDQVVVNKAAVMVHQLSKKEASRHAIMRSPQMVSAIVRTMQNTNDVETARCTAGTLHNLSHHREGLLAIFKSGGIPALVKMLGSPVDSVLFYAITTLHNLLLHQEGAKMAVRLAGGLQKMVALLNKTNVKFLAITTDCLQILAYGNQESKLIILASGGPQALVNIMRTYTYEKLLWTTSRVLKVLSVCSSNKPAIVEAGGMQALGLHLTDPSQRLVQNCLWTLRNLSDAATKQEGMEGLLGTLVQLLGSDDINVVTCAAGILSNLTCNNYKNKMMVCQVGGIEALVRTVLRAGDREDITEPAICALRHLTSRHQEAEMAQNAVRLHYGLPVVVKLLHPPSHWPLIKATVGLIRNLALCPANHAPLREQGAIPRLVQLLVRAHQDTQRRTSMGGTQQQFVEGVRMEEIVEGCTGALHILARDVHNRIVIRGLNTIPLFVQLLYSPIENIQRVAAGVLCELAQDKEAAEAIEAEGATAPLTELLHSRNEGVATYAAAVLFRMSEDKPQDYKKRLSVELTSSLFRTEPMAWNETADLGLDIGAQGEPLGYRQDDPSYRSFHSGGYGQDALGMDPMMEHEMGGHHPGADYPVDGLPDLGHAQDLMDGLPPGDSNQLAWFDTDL
As to the kind of experiment: immunoprecipitation from HEK293 cells.

endogenous PIPKIγ of HEK293 cells, sequence (O60331 whole entry): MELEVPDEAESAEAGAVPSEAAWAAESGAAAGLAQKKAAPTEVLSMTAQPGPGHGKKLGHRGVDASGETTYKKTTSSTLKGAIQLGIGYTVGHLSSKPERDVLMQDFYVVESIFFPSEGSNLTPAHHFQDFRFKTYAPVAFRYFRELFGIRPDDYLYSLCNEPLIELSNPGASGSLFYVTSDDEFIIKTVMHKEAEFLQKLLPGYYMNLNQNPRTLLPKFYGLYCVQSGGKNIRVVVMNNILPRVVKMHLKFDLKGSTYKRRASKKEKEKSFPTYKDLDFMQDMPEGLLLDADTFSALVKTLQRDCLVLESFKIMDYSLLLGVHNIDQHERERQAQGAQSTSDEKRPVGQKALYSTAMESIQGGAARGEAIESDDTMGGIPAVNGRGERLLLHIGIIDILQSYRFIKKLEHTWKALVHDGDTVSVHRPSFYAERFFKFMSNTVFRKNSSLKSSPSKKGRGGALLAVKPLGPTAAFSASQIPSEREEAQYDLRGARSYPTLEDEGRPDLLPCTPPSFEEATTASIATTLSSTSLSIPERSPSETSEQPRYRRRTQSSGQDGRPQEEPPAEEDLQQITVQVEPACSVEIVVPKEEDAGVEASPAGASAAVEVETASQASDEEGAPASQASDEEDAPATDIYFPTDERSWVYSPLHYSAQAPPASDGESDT

Consider “HA-tagged wild-type PIPKIγ661 (from UniProt O70161 1-661) (enzyme)”, for which the internalized ALEXA Fluor 647 transferrin, mean fluorescence intensity relative to nonexpressing cells (flow cytometry, MDCK) in data set [1] is greater than 40 % increase. As to “c-Myc-tagged dimeric E-cadherin C-terminus (Myc-HR-ECDT) (from UniProt P12830 731-882)”, in data set [2], the fold affinity against the monomer came out at 10 fold.

B1: HA-tagged PIPKIγ635 (protein)
chain: MELEVPDEAESAEAGAVTAEAAWSAESGAAAGMTQKKAGLAEAPLVTGQPGPGHGKKLGHRGVDASGETTYKKTTSSTLKGAIQLGIGYTVGNLSSKPERDVLMQDFYVVESIFFPSEGSNLTPAHHFQDFRFKTYAPVAFRYFRELFGIRPDDYLYSLCNEPLIELSNPGASGSVFYVTSDDEFIIKTVMHKEAEFLQKLLPGYYMNLNQNPRTLLPKFYGLYCVQSGGKNIRVVVMNNVLPRVVKMHLKFDLKGSTYKRRASKKEKEKSLPTYKDLDFMQDMPEGLLLDSDTFGALVKTLQRDCLVLESFKIMDYSLLLGVHNIDQQERERQAEGAQSKADEKRPVAQKALYSTAMESIQGGAARGEAIETDDTMGGIPAVNGRGERLLLHIGIIDILQSYRFIKKLEHTWKALVHDGDTVSVHRPSFYAERFFKFMSSTVFRKSSSLKSSPSKKGRGALLAVKPLGPTAAFSASQIPSEREDVQYDLRGARSYPTLEDEGRPDLLPCTPPSFEEATTASIATTLSSTSLSIPERSPSDTSEQPRYRRRTQSSGQDGRPQEEPHAEDLQKITVQVEPVCGVGVVPKEEGAGVEVPPCGASAAASVEIDAASQASEPASQASDEEDAPSTDIYF
In the case of B1, in data set [3], the “transferrin endocytosis (MDCK stable line)” value is listed as “had no appreciable effect on transferrin endocytosis”.

B2: E-cadherin Val832Met (receptor, UniProt P12830 155-882, looked up)
chain: DWVIPPISCPENEKGPFPKNLVQIKSNKDKEGKVFYSITGQGADTPPVGVFIIERETGWLKVTEPLDRERIATYTLFSHAVSSNGNAVEDPMEILITVTDQNDNKPEFTQEVFKGSVMEGALPGTSVMEVTATDADDDVNTYNAAIAYTILSQDPELPDKNMFTINRNTGVISVVTTGLDRESFPTYTLVVQAADLQGEGLSTTATAVITVTDTNDNPPIFNPTTYKGQVPENEANVVITTLKVTDADAPNTPAWEAVYTILNDDGGQFVVTTNPVNNDGILKTAKGLDFEAKQQYILHVAVTNVVPFEVSLTTSTATVTVDVLDVNEAPIFVPPEKRVEVSEDFGVGQEITSYTAQEPDTFMEQKITYRIWRDTANWLEINPDTGAISTRAELDREDFEHVKNSTYTALIIATDNGSPVATGTGTLLLILSDVNDNAPIPEPRTIFFCERNPKPQVINIIDADLPPNTSPFTAELTHGASANWTIQYNDPTQESIILKPKMALEVGDYKINLKLMDNQNKDQVTTLEVSVCDCEGAAGVCRKAQPVEAGLQIPAILGILGGILALLILILLLLLFLRRRAVVKEPLLPPEDDTRDNVYYYDEEGGGEEDQDFDLSQLHRGLDARPEVTRNDVAPTLMSVPRYLPRPANPDEIGNFIDENLKAADTDPTAPPYDSLLMFDYEGSGSEAASLSSLNSSESDKDQDYDYLNEWGNRFKKLADMYGGGEDD
notes: whole, on cells; Expressed in HEK293 cells and co-immunoprecipitated from lysates; also called Val832Met E-cadherin mutant
Take B2: in the data set with β-catenin, the binding result is given as “binds”.
